In paper PMC4140661 one finds amount of Spa2p recovered relative to Pea2p-M409 data, which are given here for one substance.

The assay has as its target Pea2p-L409-ProA (pea2-M409L; S288C-encoded Pea2p variant in the Σ1278b background) (S. cerevisiae (S288C allele recreated in strain Σ1278b)) (UniProt P40091). The assay can be described thus: co-IP; IgG pull-down with Pea2p-ProA as bait from lysates of Σ1278b cells; HA-Spa2p from a copper-inducible plasmid; lysis buffer 50 mM Tris-HCl pH 7.5, 150 mM NaCl, 2 mM EDTA, 0.5% Triton X-100; 2 hr at 4°C; Western blot (anti-HA, anti-Protein A); levels normalized against total cell lysate.
UniProt P40091, sequence (P40091 whole entry, stated change not applied): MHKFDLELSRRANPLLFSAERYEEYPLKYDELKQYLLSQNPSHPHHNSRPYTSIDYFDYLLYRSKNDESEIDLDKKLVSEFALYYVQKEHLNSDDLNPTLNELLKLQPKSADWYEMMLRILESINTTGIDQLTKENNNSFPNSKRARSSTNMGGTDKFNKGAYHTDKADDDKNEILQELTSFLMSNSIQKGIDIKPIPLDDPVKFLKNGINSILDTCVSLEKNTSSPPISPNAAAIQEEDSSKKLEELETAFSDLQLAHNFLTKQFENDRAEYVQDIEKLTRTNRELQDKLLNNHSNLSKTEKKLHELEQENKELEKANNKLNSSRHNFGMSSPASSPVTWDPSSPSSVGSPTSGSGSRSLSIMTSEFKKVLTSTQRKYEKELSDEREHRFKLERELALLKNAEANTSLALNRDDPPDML

HA-Spa2p, sequence (P23201 whole entry): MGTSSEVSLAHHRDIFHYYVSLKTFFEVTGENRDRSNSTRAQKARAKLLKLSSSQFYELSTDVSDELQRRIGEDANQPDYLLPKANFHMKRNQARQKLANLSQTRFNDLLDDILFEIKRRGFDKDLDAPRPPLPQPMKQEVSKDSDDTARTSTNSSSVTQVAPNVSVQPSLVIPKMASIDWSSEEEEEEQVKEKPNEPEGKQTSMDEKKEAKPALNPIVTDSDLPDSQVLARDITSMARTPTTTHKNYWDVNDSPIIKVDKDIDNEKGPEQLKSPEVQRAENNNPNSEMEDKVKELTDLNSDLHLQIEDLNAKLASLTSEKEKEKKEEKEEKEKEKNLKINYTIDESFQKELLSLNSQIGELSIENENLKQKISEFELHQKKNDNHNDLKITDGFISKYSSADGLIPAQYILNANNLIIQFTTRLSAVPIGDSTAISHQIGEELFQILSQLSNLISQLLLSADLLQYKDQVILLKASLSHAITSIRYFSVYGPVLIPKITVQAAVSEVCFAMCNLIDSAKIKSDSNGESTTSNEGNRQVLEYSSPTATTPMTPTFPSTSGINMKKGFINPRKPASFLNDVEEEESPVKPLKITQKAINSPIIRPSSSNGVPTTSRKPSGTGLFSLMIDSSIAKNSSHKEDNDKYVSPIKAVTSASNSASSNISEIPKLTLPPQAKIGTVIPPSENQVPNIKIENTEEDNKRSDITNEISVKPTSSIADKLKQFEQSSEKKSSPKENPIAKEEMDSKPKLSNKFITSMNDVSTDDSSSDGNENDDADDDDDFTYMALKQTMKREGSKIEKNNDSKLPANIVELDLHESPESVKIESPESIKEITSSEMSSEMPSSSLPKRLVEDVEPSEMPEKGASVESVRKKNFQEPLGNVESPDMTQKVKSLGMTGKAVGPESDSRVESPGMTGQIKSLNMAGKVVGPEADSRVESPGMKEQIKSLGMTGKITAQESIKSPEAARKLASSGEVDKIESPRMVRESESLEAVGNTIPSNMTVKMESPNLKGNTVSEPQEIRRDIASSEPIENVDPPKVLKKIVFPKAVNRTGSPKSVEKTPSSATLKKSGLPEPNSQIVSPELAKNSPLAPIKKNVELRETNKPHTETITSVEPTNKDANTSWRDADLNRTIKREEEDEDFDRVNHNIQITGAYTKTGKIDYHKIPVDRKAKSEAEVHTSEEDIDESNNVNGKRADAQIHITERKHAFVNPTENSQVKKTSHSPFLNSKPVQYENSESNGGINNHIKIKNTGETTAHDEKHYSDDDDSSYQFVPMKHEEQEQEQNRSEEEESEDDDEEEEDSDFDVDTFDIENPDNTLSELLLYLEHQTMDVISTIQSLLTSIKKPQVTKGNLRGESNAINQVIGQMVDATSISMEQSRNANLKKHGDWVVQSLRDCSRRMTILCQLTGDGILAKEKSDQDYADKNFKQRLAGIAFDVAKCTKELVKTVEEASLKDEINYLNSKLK

For “HA-Spa2p (from UniProt P23201 1-1466) (natural protein)”, the amount of Spa2p recovered relative to Pea2p-M409 was determined as 60%.
